These results are taken from paper PMC13250567, “U1 snRNP and RNA polymerase II interaction is predominantly mediated by Prp40 rather than U1-70K in yeast” (Nucleic Acids Research, 2026).

Holding throughout (details): both partners purified
Experiment [1] addresses T1, yeast RNA polymerase II, purified (CBP tag on RPB3) (yeast, UniProt P04050 1-1733; P08518 1-1224; P16370 1-318; P20433 1-221; P20434 1-215; P20435 …).
T1 construct: RPB1, largest subunit of yeast pol II, wild type with its CTD (26 heptapeptide repeats); RPB2 subunit of yeast pol II; RPB3 subunit of yeast pol II, TAP-tagged (CBP-TEV-protein A); CBP is left after TEV cleavage; RPB4 subunit of yeast pol II; RPB5 subunit of yeast pol II; RPB6 subunit of yeast pol II; RPB7 subunit of yeast pol II; RPB8 subunit of yeast pol II; RPB9 subunit of yeast pol II; RPB10 …
Kind of experiment: pull-down; GST fusion proteins on glutathione-Sepharose incubated with 1 μM purified pol II, 1.5 h, 4 °C; cleaved off with PreScission protease; Western blot with 8WG16 (RPB1) and anti-CBP.

In experiment [2] the target is T1, yeast RNA polymerase II, purified (CBP …). The experiment is described as follows: cross-linking; purified pol II and Prp40 FF4-6 at ~1:1.5 molar ratio in 20 mM HEPES pH 7.5, 150 mM NaCl, 1 mM MgCl2, 0.5 mM TCEP; 1 mM DSSO or 2 mM SDA, 1 h, 4 °C; LC-MS/MS.
Experiment [3] shares this target. Kind of experiment: pull-down; protein A-tagged protein on IgG resin incubated with 0.4 μM purified pol II in 20 mM Tris–HCl pH 8.0, 150 mM NaCl, 0.5 mM DTT, 1.5 h, 4 °C; Western blot with 8WG16 (RPB1) and anti-CBP (RPB3-CBP).

B1: GST-fused Prp40 FF3 (270–335) (domain or fragment, S. cerevisiae, UniProt P33203 270-335, looked up)
chain: KTQALKELREYLNGIITTSSSETFITWQQLLNHYVFDKSKRYMANRHFKVLTHEDVLNEYLKIVNT
notes: yeast Prp40 residues 270–335 (FF3); also called GST-FF3; source: E. coli (pGEX-6p-1), purified as GST fusion protein; not shown: GST, N-terminal, kept
Consider B1, for which the binding result in experiment [1] was “binds”.

B2: Prp40 FF4-6 (351–552) (domain or fragment, S. cerevisiae, UniProt P33203 351-552, looked up)
chain: NYTRDRIARDNFKSLLREVPIKIKANTRWSDIYPHIKSDPRFLHMLGRNGSSCLDLFLDFVDEQRMYIFAQRSIAQQTLIDQNFEWNDADSDEITKQNIEKVLENDRKFDKVDKEDISLIVDGLIKQRNEKIQQKLQNERRILEQKKHYFWLLLQRTYTKTGKPKPSTWDLASKELGESLEYKALGDEDNIRRQIFEDFKPE
notes: yeast Prp40 residues 351–552 (FF4 to FF6); also called Prp40 FF4-6 protein; source: E. coli (pGEX-6p-1), purified
B2: the binding result in experiment [2] is “binds”.

B3: GST-fused Prp40 FF2 (204–269) (domain or fragment, S. cerevisiae, UniProt P33203 204-269, looked up)
chain: FKEAFQKMLQNNSHIKYYTRWPTAKRLIADEPIYKHSVVNEKTKRQTFQDYIDTLIDTQKESKKKL
notes: yeast Prp40 residues 204–269 (FF2); also called GST-FF2; source: E. coli (pGEX-6p-1), purified as GST fusion protein; not shown: GST, N-terminal, kept
B3: the binding result in experiment [1] is “binds”.

B4: GST-fused Prp40 FF1 (134–189) (domain or fragment, S. cerevisiae, UniProt P33203 134-189, looked up)
chain: EAEKEFITMLKENQVDSTWSFSRIISELGTRDPRYWMVDDDPLWKKEMFEKYLSNR
notes: yeast Prp40 residues 134–189 (FF1); also called GST-FF1; source: E. coli (pGEX-6p-1), purified as GST fusion protein; not shown: GST, N-terminal, kept
On to B4, for which the binding result in experiment [1] is listed as “binds”.

B5: protein A-tagged Prp40 (full length) (natural protein, S. cerevisiae, UniProt P33203 1-583, looked up)
chain: MSIWKEAKDASGRIYYYNTLTKKSTWEKPKELISQEELLLRENGWKAAKTADGKVYYYNPTTRETSWTIPAFEKKVEPIAEQKHDTVSHAQVNGNRIALTAGEKQEPGRTINEEESQYANNSKLLNVRRRTKEEAEKEFITMLKENQVDSTWSFSRIISELGTRDPRYWMVDDDPLWKKEMFEKYLSNRSADQLLKEHNETSKFKEAFQKMLQNNSHIKYYTRWPTAKRLIADEPIYKHSVVNEKTKRQTFQDYIDTLIDTQKESKKKLKTQALKELREYLNGIITTSSSETFITWQQLLNHYVFDKSKRYMANRHFKVLTHEDVLNEYLKIVNTIENDLQNKLNELRLRNYTRDRIARDNFKSLLREVPIKIKANTRWSDIYPHIKSDPRFLHMLGRNGSSCLDLFLDFVDEQRMYIFAQRSIAQQTLIDQNFEWNDADSDEITKQNIEKVLENDRKFDKVDKEDISLIVDGLIKQRNEKIQQKLQNERRILEQKKHYFWLLLQRTYTKTGKPKPSTWDLASKELGESLEYKALGDEDNIRRQIFEDFKPESSAPTAESATANLTLTASKKRHLTPAVELDY
notes: yeast Prp40, full length, 583 residues; A TEV site lies between protein A and Prp40; also called ProtA-Prp40; source: yeast BCY123 (pRS414/GPD-protA-TEV-PRP40), purified on IgG resin; not shown: protein A, N-terminal, kept
As to B5, the binding result in experiment [3] is given as “binds”.

B6: GST-fused Prp40 FF4 (351–415) (domain or fragment, S. cerevisiae, UniProt P33203 351-415, looked up)
chain: NYTRDRIARDNFKSLLREVPIKIKANTRWSDIYPHIKSDPRFLHMLGRNGSSCLDLFLDFVDEQR
notes: yeast Prp40 residues 351–415 (FF4); also called GST-FF4; source: E. coli (pGEX-6p-1), purified as GST fusion protein; not shown: GST, N-terminal, kept
With B6, the binding result in experiment [1] was “binds”.

B7: GST-fused Prp40 FF6 ext (488–583) (domain or fragment, S. cerevisiae, UniProt P33203 488-583, looked up)
chain: NERRILEQKKHYFWLLLQRTYTKTGKPKPSTWDLASKELGESLEYKALGDEDNIRRQIFEDFKPESSAPTAESATANLTLTASKKRHLTPAVELDY
notes: yeast Prp40 residues 488–583 (FF6 and the extension downstream of it, to the C-terminus); also called 6 extension; FF6 extension; source: E. coli (pGEX-6p-1), purified as GST fusion protein; not shown: GST, N-terminal, kept
Consider B7, for which the binding result in experiment [1] is given as “binds”.
